From US20250163186A1 (PHYLAXIS BIOSCIENCE, published 2025)

target: T1, human IgE (human, UniProt P01854 1-428); experiment: ELISA, clone lysate on IgE-coated plate
T1 construct: written under the same molecule; also called IgE (Abcam ab65866); soluble IgE
Text: Each amino acid in CDR1 (SEQ ID NO:3), CDR2 (SEQ ID NO:68), and CDR3 (SEQ ID NO:74) was randomly replaced such that the 20 natural amino acids would likely all have been sampled at every position. The expression vector for the VHH containing the mutagenized CDRs was then transfected into E. coli, and at least 96 clones were randomly chosen for each position mutated in each CDR. This gives likely coverage of all potential mutations at each position since the probability to get any given amino acid at that position is 5%. […] The heat maps represent the relative binding for each clone determined by the range of OD values from the ELISA background to WT CDR binding (FIGS. 16A-16C). Site numbering for each residue tested is indicated by the inset tables in FIGS. 16A-16C.

T1 sequence (P01854 other isoform, or with tags, fused parts or gaps limits assumed, form in doubt): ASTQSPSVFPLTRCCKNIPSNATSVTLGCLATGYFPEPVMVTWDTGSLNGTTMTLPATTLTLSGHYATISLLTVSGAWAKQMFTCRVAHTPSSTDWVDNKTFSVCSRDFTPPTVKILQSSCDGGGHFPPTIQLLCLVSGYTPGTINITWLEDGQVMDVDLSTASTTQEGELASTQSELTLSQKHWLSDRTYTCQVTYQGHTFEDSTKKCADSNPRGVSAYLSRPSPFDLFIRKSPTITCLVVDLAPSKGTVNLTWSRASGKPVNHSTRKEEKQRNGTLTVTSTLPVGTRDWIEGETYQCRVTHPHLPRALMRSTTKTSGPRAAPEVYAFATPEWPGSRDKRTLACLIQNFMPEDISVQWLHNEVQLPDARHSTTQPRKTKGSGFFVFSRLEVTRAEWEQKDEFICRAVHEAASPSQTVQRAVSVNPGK

| Confirm OD450 Duplicate1 | Confirm OD450 Duplicate2 | R1 Screening OD450 | Binder |
| --- | --- | --- | --- |
| 0.557 | 0.564 | 1.01 | 33-2A2 (VHH) VHH: EVQLLESGGGEVQPGGSLRLSCVASGLTFSSYNMGWLRQAPGKEREFVGLSGSSSTSTYYAESVKGRFTISRDNAKNTVYLQMTSLRAEDTAVYYCAARRLKSTYWSDRSWDFWGQGTLVTVEP |
| 0.522 | 0.539 | 0.897 | 9E8 (VHH, also called hzB10v40 VHH, CDR1 site 9 M to L) VHH: EVQLLESGGGEVQPGGSLRLSCVASGLTFSSYNLGWLRQAPGKEREFVGLSGSSSTSTYYAESVKGRFTISRDNAKNTVYLQMTSLRAEDTAVYYCAARRLLSTYWSDRSWDFWGQGTLVTVEP |
| 0.535 | 0.524 | 0.886 | 9G9 (VHH, also called hzB10v40 VHH, CDR1 site 9 M to T) VHH: EVQLLESGGGEVQPGGSLRLSCVASGLTFSSYNTGWLRQAPGKEREFVGLSGSSSTSTYYAESVKGRFTISRDNAKNTVYLQMTSLRAEDTAVYYCAARRLLSTYWSDRSWDFWGQGTLVTVEP |
| 0.452 | 0.454 | 0.879 | 9B1 (VHH, also called hzB10v40 VHH, CDR1 site 9 M to V) VHH: EVQLLESGGGEVQPGGSLRLSCVASGLTFSSYNVGWLRQAPGKEREFVGLSGSSSTSTYYAESVKGRFTISRDNAKNTVYLQMTSLRAEDTAVYYCAARRLLSTYWSDRSWDFWGQGTLVTVEP |
| 0.534 | 0.552 | 0.917 | 8G10 (VHH, also called hzB10v40 VHH, CDR1 site 8 N to S) VHH: EVQLLESGGGEVQPGGSLRLSCVASGLTFSSYSMGWLRQAPGKEREFVGLSGSSSTSTYYAESVKGRFTISRDNAKNTVYLQMTSLRAEDTAVYYCAARRLLSTYWSDRSWDFWGQGTLVTVEP |
| 0.508 | 0.494 | 0.846 | 10E3 (VHH, also called hzB10v40 VHH, CDR1 site 10 G to S) VHH: EVQLLESGGGEVQPGGSLRLSCVASGLTFSSYNMSWLRQAPGKEREFVGLSGSSSTSTYYAESVKGRFTISRDNAKNTVYLQMTSLRAEDTAVYYCAARRLLSTYWSDRSWDFWGQGTLVTVEP |
| 0.484 | 0.479 | 0.966 | 10G10 (VHH, also called hzB10v40 VHH, CDR1 site 10 G to A) VHH: EVQLLESGGGEVQPGGSLRLSCVASGLTFSSYNMAWLRQAPGKEREFVGLSGSSSTSTYYAESVKGRFTISRDNAKNTVYLQMTSLRAEDTAVYYCAARRLLSTYWSDRSWDFWGQGTLVTVEP |
| 0.571 | 0.568 | 0.97 | 8H11 (VHH, also called hzB10v40 VHH, CDR1 site 8 N to R) VHH: EVQLLESGGGEVQPGGSLRLSCVASGLTFSSYRMGWLRQAPGKEREFVGLSGSSSTSTYYAESVKGRFTISRDNAKNTVYLQMTSLRAEDTAVYYCAARRLLSTYWSDRSWDFWGQGTLVTVEP |
| 0.498 | 0.467 | 0.921 | 9F1 (VHH, also called hzB10v40 VHH, CDR1 site 9 M to S) VHH: EVQLLESGGGEVQPGGSLRLSCVASGLTFSSYNSGWLRQAPGKEREFVGLSGSSSTSTYYAESVKGRFTISRDNAKNTVYLQMTSLRAEDTAVYYCAARRLLSTYWSDRSWDFWGQGTLVTVEP |
| 0.557 | 0.557 | 0.924 | 32F11 (VHH) VHH: EVQLLESGGGEVQPGGSLRLSCVASGLTFSSYNMGWLRQAPGKEREFVGLSGSSSTSTYYAESVKGRFTISRDNAKNTVYLQMTSLRAEDTAVYYCAARRRLSTYWSDRSWDFWGQGTLVTVEP |
| 0.471 | 0.492 | 0.927 | 28H1 (VHH) VHH: EVQLLESGGGEVQPGGSLRLSCVASGLTFSSYNMGWLRQAPGKEREFVGLSGSSSTSTYYAESVKGRFTISRDNAKNTVYLQMTSLRAEDTAVYYCSARRLLSTYWSDRSWDFWGQGTLVTVEP |
| 0.435 | 0.442 | 0.905 | 9D1 (VHH, also called hzB10v40 VHH, CDR1 site 9 M to I) VHH: EVQLLESGGGEVQPGGSLRLSCVASGLTFSSYNIGWLRQAPGKEREFVGLSGSSSTSTYYAESVKGRFTISRDNAKNTVYLQMTSLRAEDTAVYYCAARRLLSTYWSDRSWDFWGQGTLVTVEP |
| 0.49 | 0.5 | 0.88 | 9H9 (VHH, also called hzB10v40 VHH, CDR1 site 9 M to F) VHH: EVQLLESGGGEVQPGGSLRLSCVASGLTFSSYNFGWLRQAPGKEREFVGLSGSSSTSTYYAESVKGRFTISRDNAKNTVYLQMTSLRAEDTAVYYCAARRLLSTYWSDRSWDFWGQGTLVTVEP |

Further lines, the binder ahead of its results:

| Binder | Confirm OD450 Duplicate1 | Confirm OD450 Duplicate2 | R1 Screening OD450 |
| --- | --- | --- | --- |
| 5A10 (VHH, also called hzB10v40 VHH, CDR1 site 5 S to A) VHH: EVQLLESGGGEVQPGGSLRLSCVASGLTFASYNMGWLRQAPGKEREFVGLSGSSSTSTYYAESVKGRFTISRDNAKNTVYLQMTSLRAEDTAVYYCAARRLLSTYWSDRSWDFWGQGTLVTVEP | 0.554 | 0.549 | 0.96 |
| 6G9 (VHH, also called hzB10v40 VHH, CDR1 site 6 S to A) VHH: EVQLLESGGGEVQPGGSLRLSCVASGLTFSAYNMGWLRQAPGKEREFVGLSGSSSTSTYYAESVKGRFTISRDNAKNTVYLQMTSLRAEDTAVYYCAARRLLSTYWSDRSWDFWGQGTLVTVEP | 0.556 | 0.512 | 0.875 |
| 6A9 (VHH, also called hzB10v40 VHH, CDR1 site 6 S to E) VHH: EVQLLESGGGEVQPGGSLRLSCVASGLTFSEYNMGWLRQAPGKEREFVGLSGSSSTSTYYAESVKGRFTISRDNAKNTVYLQMTSLRAEDTAVYYCAARRLLSTYWSDRSWDFWGQGTLVTVEP | 0.475 | 0.488 | 0.852 |
| 6F11 (VHH, also called hzB10v40 VHH, CDR1 site 6 S to R) VHH: EVQLLESGGGEVQPGGSLRLSCVASGLTFSRYNMGWLRQAPGKEREFVGLSGSSSTSTYYAESVKGRFTISRDNAKNTVYLQMTSLRAEDTAVYYCAARRLLSTYWSDRSWDFWGQGTLVTVEP | 0.417 | 0.402 | 0.885 |
| 6E11 (VHH, also called hzB10v40 VHH, CDR1 site 6 S to T) VHH: EVQLLESGGGEVQPGGSLRLSCVASGLTFSTYNMGWLRQAPGKEREFVGLSGSSSTSTYYAESVKGRFTISRDNAKNTVYLQMTSLRAEDTAVYYCAARRLLSTYWSDRSWDFWGQGTLVTVEP | 0.454 | 0.468 | 0.817 |
| 8F11 (VHH, also called hzB10v40 VHH, CDR1 site 8 N to T) VHH: EVQLLESGGGEVQPGGSLRLSCVASGLTFSSYTMGWLRQAPGKEREFVGLSGSSSTSTYYAESVKGRFTISRDNAKNTVYLQMTSLRAEDTAVYYCAARRLLSTYWSDRSWDFWGQGTLVTVEP | 0.52 | 0.559 | 0.922 |
| 5C3 (VHH, also called hzB10v40 VHH, CDR1 site 5 S to D) VHH: EVQLLESGGGEVQPGGSLRLSCVASGLTFDSYNMGWLRQAPGKEREFVGLSGSSSTSTYYAESVKGRFTISRDNAKNTVYLQMTSLRAEDTAVYYCAARRLLSTYWSDRSWDFWGQGTLVTVEP | 0.546 | 0.556 | 0.897 |
| 6C2 (VHH, also called hzB10v40 VHH, CDR1 site 6 S to Q) VHH: EVQLLESGGGEVQPGGSLRLSCVASGLTFSQYNMGWLRQAPGKEREFVGLSGSSSTSTYYAESVKGRFTISRDNAKNTVYLQMTSLRAEDTAVYYCAARRLLSTYWSDRSWDFWGQGTLVTVEP | 0.534 | 0.526 | 0.826 |
| 5H11 (VHH, also called hzB10v40 VHH, CDR1 site 5 S to R) VHH: EVQLLESGGGEVQPGGSLRLSCVASGLTFRSYNMGWLRQAPGKEREFVGLSGSSSTSTYYAESVKGRFTISRDNAKNTVYLQMTSLRAEDTAVYYCAARRLLSTYWSDRSWDFWGQGTLVTVEP | 0.545 | 0.55 | 0.893 |
| 6H1 (VHH, also called hzB10v40 VHH, CDR1 site 6 S to P) VHH: EVQLLESGGGEVQPGGSLRLSCVASGLTFSPYNMGWLRQAPGKEREFVGLSGSSSTSTYYAESVKGRFTISRDNAKNTVYLQMTSLRAEDTAVYYCAARRLLSTYWSDRSWDFWGQGTLVTVEP | 0.487 | 0.53 | 0.908 |
